This experiment addresses Fc receptor on THP-1 cells. In words: cell-based or functional assay.

Bounds are passed on as bounds.

Chain of RAGE fusion protein TTP-4000 (Fc fusion) (chain): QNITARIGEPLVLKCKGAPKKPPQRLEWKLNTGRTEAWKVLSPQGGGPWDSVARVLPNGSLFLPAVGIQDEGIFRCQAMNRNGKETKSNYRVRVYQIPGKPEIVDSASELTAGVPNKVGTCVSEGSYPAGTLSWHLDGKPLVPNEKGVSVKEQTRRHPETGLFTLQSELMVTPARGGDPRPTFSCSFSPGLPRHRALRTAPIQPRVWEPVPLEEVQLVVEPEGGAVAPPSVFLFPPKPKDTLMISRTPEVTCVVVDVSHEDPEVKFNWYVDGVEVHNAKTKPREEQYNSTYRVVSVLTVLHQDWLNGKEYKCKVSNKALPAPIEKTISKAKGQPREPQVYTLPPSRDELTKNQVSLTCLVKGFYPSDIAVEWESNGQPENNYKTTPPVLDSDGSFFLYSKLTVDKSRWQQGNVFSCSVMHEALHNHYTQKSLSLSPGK

“RAGE fusion protein TTP-4000 (Fc fusion)”: the TNF-α secretion from THP-1 cells on wells coated with 10 ug/well heat aggregated protein was < 2 ng/well.

As to “human IgG1 (heat aggregated, coated on the well) (antibody)”, the TNF-α secretion from THP-1 cells on wells coated with 10 ug/well heat aggregated protein was > 40 ng/well.

These data come from US20080199467A1.
